{"source": "paper PMC9225675", "about": "(mAbs, 2022)", "molecular_target": "T1, LukF component of Panton-Valentine Leukocidin (LukF-PV) (Staphylococcus aureus, strain )", "T1 chain": "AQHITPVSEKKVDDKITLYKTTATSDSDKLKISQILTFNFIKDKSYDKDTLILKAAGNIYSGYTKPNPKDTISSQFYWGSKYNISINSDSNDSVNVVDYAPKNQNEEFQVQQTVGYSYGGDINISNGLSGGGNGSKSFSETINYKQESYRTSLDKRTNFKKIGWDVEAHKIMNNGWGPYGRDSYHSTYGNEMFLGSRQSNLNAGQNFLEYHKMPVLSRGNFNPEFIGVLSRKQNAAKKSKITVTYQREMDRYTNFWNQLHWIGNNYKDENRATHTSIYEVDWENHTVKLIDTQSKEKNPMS", "test": "BLI"}
{"binder": "H5 mAb (broadly neutralizing antibody) (antibody, V domains shown) VH: EVQLQESGPGLVRPSETLSLTCAVSGYSISSGMGWGWIRQPPGKGLEWIGSIDQRGSTYYNPSLKSRVTISVDTSKNQFSLKLSSVTAADTAVYYCARDAGHAVDMDVWGKGTTVTVSS VL: DIQMTQSPSSVSASVGDRVTITCRASQGISRWLAWYQQKPGKAPKLLIYAASSLQSGVPSRFSGSGSGTDFTLTISSLQPEDFATYYCQQGYVFPLTFGGGTKVEIK", "values": [{"measurement": "Kd", "result": 0.4, "unit": "nM"}]}
